Literature values as cited in publication PMC9902533.

Biological target: Immunoglobulin E kappa (recombinant, clone AbD18705_hIgE, HCA190) (human) (UniProt P01854+P01834)
Details: 10 mM HEPES pH 7.4, 0.05% Tween-20, room temperature (IgE; fibrils and exosomes same buffer); FUS: 50 mM Tris-HCl pH 7.4, 25 mM KCl, 0.02% Tween-20, on-chip …

Chain of Immunoglobulin E kappa (recombinant, clone AbD18705_hIgE, HCA190) (human) (P01854 whole entry, chain 1 of 2, other chains not shown): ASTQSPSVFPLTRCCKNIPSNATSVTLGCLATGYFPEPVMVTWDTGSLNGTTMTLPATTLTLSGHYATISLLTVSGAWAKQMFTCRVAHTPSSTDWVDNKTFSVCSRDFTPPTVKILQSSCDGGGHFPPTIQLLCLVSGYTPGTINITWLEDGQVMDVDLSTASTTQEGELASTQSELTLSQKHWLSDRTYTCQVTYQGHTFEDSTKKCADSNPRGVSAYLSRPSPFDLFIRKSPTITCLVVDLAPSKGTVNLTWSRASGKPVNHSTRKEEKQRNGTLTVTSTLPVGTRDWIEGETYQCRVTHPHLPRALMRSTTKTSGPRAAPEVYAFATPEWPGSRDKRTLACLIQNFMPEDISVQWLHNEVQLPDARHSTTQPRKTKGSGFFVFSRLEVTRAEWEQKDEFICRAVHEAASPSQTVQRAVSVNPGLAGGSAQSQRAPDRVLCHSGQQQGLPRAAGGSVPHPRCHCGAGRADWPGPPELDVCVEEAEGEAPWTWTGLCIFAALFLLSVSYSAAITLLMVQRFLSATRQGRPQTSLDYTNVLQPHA

TGGGGCACGTTTATCCGTCCCTCCTAGTGGCGTGCCCC [IgE aptamer]
Kd: 50 nM
